The experiment concerns the target T1, His-Sox2 (human, UniProt P48431 1-317).
T1 construct: Sox2, human, cloned into pGEX-6p-1 or pET-28a (+) for the GST pull-down; source: E. coli BL21, purified
Put plainly: pull-down; GST-tagged protein on glutathione-Sepharose 4B beads incubated with His-tagged protein for 24 h at 4 °C; washed four times with 100 mM NaCl, 10 mM Tris, 50 mM NaF, 2 mM EDTA, 0.5 mM Na3VO4, 1% Nonidet P40; western blot. To be noted: both partners purified.

T1 sequence (P48431 whole entry): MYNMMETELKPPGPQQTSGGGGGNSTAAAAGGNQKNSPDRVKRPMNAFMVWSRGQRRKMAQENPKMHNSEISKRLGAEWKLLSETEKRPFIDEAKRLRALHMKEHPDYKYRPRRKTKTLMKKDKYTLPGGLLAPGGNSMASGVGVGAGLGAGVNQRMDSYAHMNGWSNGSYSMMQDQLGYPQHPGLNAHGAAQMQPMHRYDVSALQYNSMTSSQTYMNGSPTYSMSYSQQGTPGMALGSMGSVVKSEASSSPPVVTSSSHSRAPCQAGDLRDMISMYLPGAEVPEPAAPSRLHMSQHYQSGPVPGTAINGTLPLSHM

B1: GST-OTUD7B-ZF (811–843) (domain or fragment, human, UniProt Q6GQQ9 811-843, looked up)
chain: GHPETNNFCSCCYREELRRREREPDGELLVHRF
notes: OTUD7B, human, C-terminal zinc finger (ZF) domain, residues 811-843; also called OTUD7B ZF domain; source: E. coli BL21, purified
As for B1, the binding result is recorded as “binds”.

The record behind these values is PMC6220269, “Dynamic ubiquitylation of Sox2 regulates proteostasis and governs neural progenitor cell differentiation” (Nature Communications, 2018).
